The results in this text go back to paper PMC3919607 (Nucleic Acids Research, 2013).

Sequences and labels used below:
B1: full-length Rsa1p (co-expression) (natural protein, S. cerevisiae, UniProt Q08932 1-381, looked up)
chain: MNYNNFENSKGDGHSRLPKPTYSGTLSDGYDESKIKRQKTDSAFNAAYSPHMYPNSPYYEGSWNTGYTPQLHHVAPHNQYFHPIQPSTQYNYTSPPNYTENYIPPVHQNISYAPALNLQKWPSSYCENTQALKNDKDYQTSISYEDVAIPTVKEIQLIEKNRGKDTFMNEISPVPSSKDQASAEPTEIPRKDPELANSNAEDDHNNLGLEDDDRDEQLESEGLGKVVLVPGTSIALITDEDVKKWREERKKMWLLKISNNKQKHMQEMGIKEDELKSQPSIFKESRKEKQFIQSIQNQVQRGNPKIDLNLKLIQREFANENSQLLDFIRELGDVGLLEYELSQQEKDVLFGSSEDNNKNHYKPNYKNRKPNLSRANFTRNK
B2: Snu13p (recombinant, GST cleaved off) (natural protein, S. cerevisiae)
chain: GPMSAPNPKAFPLADAALTQQILDVVQQAANLRQLKKGANEATKTLNRGISEFIIMAADCEPIEILLHLPLLCEDKNVPYVFVPSRVALGRACGVSRPVIAASITTNDASAIKTQIYAVKDKIETLLI

The target of assay [1] is B2. Put plainly: ITC. For orientation: In ITC the heat of successive injections is recorded.
In assay [2] the target is T1, His6-tagged WT Snu13p (co-expression) (S. cerevisiae, UniProt P39990 1-126).
T1 sequence (looked up): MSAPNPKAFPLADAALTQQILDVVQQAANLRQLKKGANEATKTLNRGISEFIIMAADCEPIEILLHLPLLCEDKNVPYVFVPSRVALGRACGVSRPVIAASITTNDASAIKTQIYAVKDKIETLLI
The assay can be described thus: pull-down.

The target in another assay is T2, His6Rsa1p230–381 (S. cerevisiae, UniProt Q08932 230-381).
T2 sequence (looked up): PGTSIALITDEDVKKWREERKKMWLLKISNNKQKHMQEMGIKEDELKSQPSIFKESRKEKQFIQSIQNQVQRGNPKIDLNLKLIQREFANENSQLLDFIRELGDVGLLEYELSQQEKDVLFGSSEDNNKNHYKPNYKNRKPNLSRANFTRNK
The assay can be described thus: native gel or EMSA. For orientation: Mobility shift assays separate free from complexed probe on a gel.

A word on the Kd: it is the constant that tells how readily two partners part at equilibrium. As for TDEDVKKWREERKKMWLLKISN (peptide, UniProt Q08932 238-259, looked up) [synthetic peptide Rsa1p238–259], the Kd in assay [1] turned out to be 18 ± 1 µM. By stoichiometry N is commonly meant the number of molecules, sites or subunits per partner or assembly. Turning to B1, the “stoichiometry N” value in assay [2] is roughly 1. As for B2, the binding result with His6Rsa1p230–381 is reported as “binds”.
